Source: US6676941B2 (Board of Regents, The University of Texas System, priority 1999, dated 2004)

Tested on: Bend3 mouse endothelial cells; ABAE; HUVEC
Assay: Direct binding of biotinylated 6-His endostatin to endothelial cells
Type: cell-based, bovine, human
Conditions: streptavidin-peroxidase detection
Source text: Binding was detected using streptavidin-peroxidase in conjunction with O-phenylenediamine (OPD) and the absorbance read at 490 nm.

B1: endostatin (protein, UniProt P39060 1572-1754, looked up)
Endostatin: HSHRDFQPVLHLVALNSPLSGGMRGIRGADFQCFQQARAVGLAGTFRAFLSSRLQDLYSIVRRADRAAVPIVNLKDELLFPSWEALFSGSEGPLKPGARIFSFDGKDVLRHPTWPQKSVWHGSDPNGRRLTESYCETWRTEAPSATGQASSLLGGRLLGQSAASCHHAYIVLCIENSFMTASK
modifications: Endostatin
Binding to endothelial cells in vitro: bound in a saturable fashion
